For the data set the following is noted: Escherichia coli (strain K12); pH 7.8; 25 °C; Urea; CD; Potassium phosphate 10 mM; transition: 3; whole UniProt chain shown.

“And” between values parts separate entries of the source, which are not always exact repeats. Equal values may be shown once.

B1: Tryptophan synthase alpha chain wild type, P0A877 (protein)
chain: MERYESLFAQLKERKEGAFVPFVTLGDPGIEQSLKIIDTLIEAGADALELGIPFSDPLADGPTIQNATLRAFAAGVTPAQCFEMLALIRQKHPTIPIGLLMYANLVFNKGIDEFYAQCEKVGVDSVLVADVPVEESAPFRQAALRHNVAPIFICPPNADDDLLRQIASYGRGYTYLLSRAGVTGAENRAALPLNHLVAKLKEYNAAPPLQGFGISAPDQVKAAIDAGAAGAISGSAIVKIIEQHINEPEKMLAALKVFVQPMKAATRS
On to B1, for which the denaturant m value was 2.29 kcal/mol/M and 1.2 kcal/mol/M; the unfolding free energy is 6.13 kcal/mol and 4.72 kcal/mol.
